Values quoted from earlier work as cited in PMC3290099.
pKd: −log10 of the molar value.

Biological target: CIB1 (Homo sapiens) (UniProt Q99828)
UniProt Q99828, sequence (Q99828 2-191): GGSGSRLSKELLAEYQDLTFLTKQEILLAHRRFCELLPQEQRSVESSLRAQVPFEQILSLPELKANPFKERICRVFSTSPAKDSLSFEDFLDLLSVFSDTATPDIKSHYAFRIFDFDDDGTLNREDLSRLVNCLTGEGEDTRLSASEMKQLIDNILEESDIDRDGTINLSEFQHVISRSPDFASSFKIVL

For Integrin αIIb (from UniProt P08514), the pKd is listed as 5.85.
